The binders below were run against HLA-A*0301 (human) (assay: competitive inhibition of 125I-labelled standard peptide binding to purified HLA-A*0301, gel filtration). Conditions: remark: other sources report otherwise.

Row | Binder | relative binding ratio (IC50 of standard peptide / IC50 of test peptide) (ratio to standard peptide)
1 | DLQPETTDLY (modifications not checked) [HPV16 E7 14 …] | 0.0002

Each binder was assayed against HLA-A*1101 (human) (assay: competition with 125I-labelled standard peptide for purified HLA-A*1101, gel filtration). Conditions: not given.

Row | Binder | binding affinity ratio (IC50 of standard peptide / IC50 of test peptide) | relative binding ratio (IC50 of standard peptide / IC50 of test peptide)
2 | KSFLKGTPK (modifications not checked) [HPV18 E1 position 468 peptide …] | 0.0015 | 
3 | QAEPDRAHY (modifications not checked) [… (HPV16 E7, position 44, 9 amino acids)] |  | 0.0002
4 | VCDKCLKFY (modifications not checked) [… (HPV16 E6, position 69, 9 amino acids)] |  | 0.0002
5 | KLRAGQNHR (modifications not checked) [HPV18 E1 position 647 peptide …] | 0.0013 | 

Same assay, conditions: remark: other sources report otherwise

Row | Binder | relative binding ratio (IC50 of standard peptide / IC50 of test peptide)
6 | ETTDLYCY (modifications not checked) [ETTDLYCY (HPV16 E7, position 18, 8 amino acids)] | 0.0001
7 | HGDTPTLHEY (modifications not checked) [… (HPV16 E7, position 2, 10 amino acids)] | 0.0001

Each binder was assayed against HLA-B*0702 (human) (assay: competition with 125I-labeled standard peptide for purified HLA, gel filtration). Conditions: not given.

Row | Binder | binding affinity ratio (IC50 of standard peptide / IC50 of test peptide)
8 | LPQLCTEL (modifications not checked) [HPV16 E6 19 LPQLCTEL] | 0.0055
9 | PPKLRSTAA (modifications not checked) [HPV16 E1 309 …] | 0.0014

Each binder was assayed against HLA-A*1101 (human) (assay: competition with 125I-labelled standard probe peptide for purified HLA-A*1101, gel filtration). Conditions: not given.

Row | Binder | binding affinity ratio (IC50 of standard peptide / IC50 of test peptide) | relative binding ratio (IC50 of standard peptide / IC50 of test peptide)
10 | NIHPAKDNR (modifications not checked) [HPV18 E1 574 …] | 0.0002 | 
11 | NSGQKKAKR (modifications not checked) [HPV18 E1 119 …] | 0.0002 | 
12 | LILALLRYK (modifications not checked) [HPV18 E1 281 …] | 0.18 | 
13 | LTTNIHPAK (modifications not checked) [HPV18 E1 571 …] | 0.12 | 
14 | EGTGCNGWFY (modifications not checked) [HPV18 E1 10-19 peptide …] |  | 0.0002

The binders below were run against HLA-A*0101 (human) (assay: competition with 125I-labelled standard peptide for purified HLA-A*0101, gel filtration). Conditions: not given.

Row | Binder | relative binding ratio (IC50 of standard peptide / IC50 of test peptide)
15 | QPETTDLY (modifications not checked) [QPETTDLY (HPV16 E7, position 16, 8 amino acids)] | 0.001
16 | GTTLEQQY (modifications not checked) [GTTLEQQY (HPV16 E6, position 92, 8 amino acids)] | 0.0006
17 | QAEPDRAHY (modifications not checked) [… (HPV16 E7, position 44, 9 amino acids)] | 0.021
18 | VCDKCLKFY (modifications not checked) [… (HPV16 E6, position 69, 9 amino acids)] | 0.0017
19 | DTPTLHEY (modifications not checked) [DTPTLHEY (HPV16 E7, position 4, 8 amino acids)] | 0.0002

Same assay, conditions: remark: other sources report otherwise

Row | Binder | relative binding ratio (IC50 of standard peptide / IC50 of test peptide)
20 | ETTDLYCY (modifications not checked) [ETTDLYCY (HPV16 E7, position 18, 8 amino acids)] | 0.078
21 | HGDTPTLHEY (modifications not checked) [… (HPV16 E7, position 2, 10 amino acids)] | 0.003

What follows are binders tested against HLA-A*1101 (purified HLA class I molecule) (human) (assay: not given). Conditions: not given.

Row | Binder | relative binding ratio (IC50 of standard peptide / IC50 of test peptide)
22 | TGLYNLLIR (modifications not checked) [HPV18 E6 96-104 peptide …] | 0.0002
23 | LTEVFEFAFK (modifications not checked) [HPV18 E6 41-50 peptide …] | 0.036
24 | SVYGDTLEK (modifications not checked) [HPV18 E6 84-92 peptide …] | 0.23
25 | VVYRDSIPH (modifications not checked) [HPV18 E6 54-62 peptide …] | 0.38
26 | RFHNIAGHYR (modifications not checked) [HPV18 E6 126-135 peptide …] | 0.0057
27 | NTGLYNLLIR (modifications not checked) [HPV18 E6 95-104 peptide …] | 0.0013
28 | RFHNIAGHY (modifications not checked) [HPV18 E6 126-134 peptide …] | 0.0002

Each binder was assayed against HLA-B*3501 (human) (assay: competition with 125I-labelled standard peptide for purified HLA, gel filtration). Conditions: not given.

Row | Binder | binding affinity ratio (IC50 of standard peptide / IC50 of test peptide)
29 | EPQRHTMLCM (modifications not checked) [HPV18 E7 peptide … (position 55, 10 amino acids)] | 0.0002
30 | GPKATLQDI (modifications not checked) [HPV18 E7 peptide … (position 3, 9 amino acids)] | 0.0001
31 | GPKATLQDIV (modifications not checked) [HPV18 E7 peptide … (position 3, 10 amino acids)] | 0.0001
32 | DPTRRPYKL (modifications not checked) [HPV18 E6 peptide … (position 6, 9 amino acids)] | 0.0001
33 | KPLNPAEKL (modifications not checked) [HPV18 E6 peptide … (position 110, 9 amino acids)] | 0.0001
34 | EPQNEIPVDL (modifications not checked) [HPV18 E7 peptide … (position 16, 10 amino acids)] | 0.0005
35 | NPAEKLRHL (modifications not checked) [HPV18 E6 peptide … (position 113, 9 amino acids)] | 0.0001
36 | IPHAACHKCI (modifications not checked) [HPV18 E6 peptide … (position 60, 10 amino acids)] | 0.0001

What follows are binders tested against HLA-B*0702 (human) in the same assay as above. Conditions: not given.

Row | Binder | binding affinity ratio (IC50 of standard peptide / IC50 of test peptide)
37 | EPQRHTMLCM (modifications not checked) [HPV18 E7 peptide … (position 55, 10 amino acids)] | 0.0026
38 | PPKLRSTAA (modifications not checked) [HPV31 E1 289 peptide … (B07 supermotif peptide)] | 0.0014
39 | GPKATLQDIV (modifications not checked) [HPV18 E7 peptide … (position 3, 10 amino acids)] | 0.0001
40 | DPTRRPYKL (modifications not checked) [HPV18 E6 peptide … (position 6, 9 amino acids)] | 0.0001
41 | KPLNPAEKL (modifications not checked) [HPV18 E6 peptide … (position 110, 9 amino acids)] | 0.035
42 | EPQNEIPVDL (modifications not checked) [HPV18 E7 peptide … (position 16, 10 amino acids)] | 0.0001
43 | NPAEKLRHL (modifications not checked) [HPV18 E6 peptide … (position 113, 9 amino acids)] | 0.011
44 | IPHAACHKCI (modifications not checked) [HPV18 E6 peptide … (position 60, 10 amino acids)] | 0.0065

The binders below were run against HLA-B*5101 (human) in the same assay as above. Conditions: not given.

Row | Binder | binding affinity ratio (IC50 of standard peptide / IC50 of test peptide)
45 | EPQRHTMLCM (modifications not checked) [HPV18 E7 peptide … (position 55, 10 amino acids)] | 0.0003
46 | GPKATLQDI (modifications not checked) [HPV18 E7 peptide … (position 3, 9 amino acids)] | 0.0001
47 | GPKATLQDIV (modifications not checked) [HPV18 E7 peptide … (position 3, 10 amino acids)] | 0.0001
48 | DPTRRPYKL (modifications not checked) [HPV18 E6 peptide … (position 6, 9 amino acids)] | 0.0001
49 | KPLNPAEKL (modifications not checked) [HPV18 E6 peptide … (position 110, 9 amino acids)] | 0.0001
50 | EPQNEIPVDL (modifications not checked) [HPV18 E7 peptide … (position 16, 10 amino acids)] | 0.0001
51 | NPAEKLRHL (modifications not checked) [HPV18 E6 peptide … (position 113, 9 amino acids)] | 0.0001
52 | IPHAACHKCI (modifications not checked) [HPV18 E6 peptide … (position 60, 10 amino acids)] | 0.0046

What follows are binders tested against HLA-B*5301 (human) in the same assay as above. Conditions: not given.

Row | Binder | binding affinity ratio (IC50 of standard peptide / IC50 of test peptide)
53 | EPQRHTMLCM (modifications not checked) [HPV18 E7 peptide … (position 55, 10 amino acids)] | 0.0043
54 | GPKATLQDI (modifications not checked) [HPV18 E7 peptide … (position 3, 9 amino acids)] | 0.0001
55 | GPKATLQDIV (modifications not checked) [HPV18 E7 peptide … (position 3, 10 amino acids)] | 0.0001
56 | DPTRRPYKL (modifications not checked) [HPV18 E6 peptide … (position 6, 9 amino acids)] | 0.0001
57 | KPLNPAEKL (modifications not checked) [HPV18 E6 peptide … (position 110, 9 amino acids)] | 0.0001
58 | EPQNEIPVDL (modifications not checked) [HPV18 E7 peptide … (position 16, 10 amino acids)] | 0.0001
59 | NPAEKLRHL (modifications not checked) [HPV18 E6 peptide … (position 113, 9 amino acids)] | 0.0001
60 | IPHAACHKCI (modifications not checked) [HPV18 E6 peptide … (position 60, 10 amino acids)] | 0.0001

The binders below were run against HLA-B*5401 (human) in the same assay as above. Conditions: not given.

Row | Binder | binding affinity ratio (IC50 of standard peptide / IC50 of test peptide)
61 | EPQRHTMLCM (modifications not checked) [HPV18 E7 peptide … (position 55, 10 amino acids)] | 0.0001
62 | GPKATLQDI (modifications not checked) [HPV18 E7 peptide … (position 3, 9 amino acids)] | 0.0002
63 | GPKATLQDIV (modifications not checked) [HPV18 E7 peptide … (position 3, 10 amino acids)] | 0.0001
64 | DPTRRPYKL (modifications not checked) [HPV18 E6 peptide … (position 6, 9 amino acids)] | 0.0002
65 | KPLNPAEKL (modifications not checked) [HPV18 E6 peptide … (position 110, 9 amino acids)] | 0.0002
66 | EPQNEIPVDL (modifications not checked) [HPV18 E7 peptide … (position 16, 10 amino acids)] | 0.0001
67 | NPAEKLRHL (modifications not checked) [HPV18 E6 peptide … (position 113, 9 amino acids)] | 0.0002
68 | IPHAACHKCI (modifications not checked) [HPV18 E6 peptide … (position 60, 10 amino acids)] | 0.0005

These binders were tested against HLA-A*0101 (human) (assay: competition with 125I-labelled standard peptide 944.02 ([..]) for purified HLA-A*0101, gel filtration). Conditions: not given.

Row | Binder | binding affinity ratio (IC50 of standard peptide / IC50 of test peptide)
69 | CIVYRDGNPY (modifications not checked) [HPV16 E6 58 …] | 0.0015
70 | AVCDKCLKFY (modifications not checked) [HPV16 E6 68 …] | 0.0095
71 | GTTLEQQY (modifications not checked) [HPV16 E6 92 GTTLEQQY] | 0.0006
72 | DTPTLHEY (modifications not checked) [HPV16 E7 4 DTPTLHEY] | 0.0002

Same assay, conditions: remark: other sources report otherwise

Row | Binder | binding affinity ratio (IC50 of standard peptide / IC50 of test peptide)
73 | DLQPETTDLY (modifications not checked) [HPV16 E7 14 …] | 0.002

What follows are binders tested against HLA-A*0301 (human) (assay: competitive inhibition of 125I-labelled standard peptide binding to purified HLA, gel filtration). Conditions: not given.

Row | Binder | binding affinity ratio (IC50 of standard peptide / IC50 of test peptide)
74 | NIHPAKDNR (modifications not checked) [HPV18 E1 position 574 peptide …] | 0.0005
75 | WTYFDTYMR (modifications not checked) [HPV18 E1 position 536 peptide …] | 0.0005
76 | QVLHVLKRK (modifications not checked) [HPV18 E1 position 80 peptide …] | 0.0028
77 | KSFLKGTPK (modifications not checked) [HPV18 E1 position 468 peptide …] | 0.0003
78 | NSGQKKAKR (modifications not checked) [HPV18 E1 position 119 peptide …] | 0.0005
79 | KLRAGQNHR (modifications not checked) [HPV18 E1 position 647 peptide …] | 0.3

The binders below were run against HLA-A*1101 (human) in the same assay as above. Conditions: not given.

Row | Binder | binding affinity ratio (IC50 of standard peptide / IC50 of test peptide)
80 | NIHPAKDNR (modifications not checked) [HPV18 E1 position 574 peptide …] | 0.0002
81 | WTYFDTYMR (modifications not checked) [HPV18 E1 position 536 peptide …] | 0.012
82 | QVLHVLKRK (modifications not checked) [HPV18 E1 position 80 peptide …] | 0.002
83 | KSFLKGTPK (modifications not checked) [HPV18 E1 position 468 peptide …] | 0.0015
84 | NSGQKKAKR (modifications not checked) [HPV18 E1 position 119 peptide …] | 0.0002
85 | KLRAGQNHR (modifications not checked) [HPV18 E1 position 647 peptide …] | 0.0013

From patent publication US7026443
